Assay [1] concerns Wnt/β-catenin pathway. Briefly: Dual Luciferase TopFlash/Renilla Reporter Assay. It counts as cell-based, human. To be noted: for TopFlash relative to ctrl (= 1): Suppl. Fig. 2a; for TopFlash FlAsH III (CK1e-/-), relative to ctrl (= 1): Suppl. Fig. 4f; for TopFlash FlAsH III (CK1e-/-), relative to ctrl (= 1) / TopFlash in CK1e-/- relative to CK1e wt (= 1): CK1e-/- cells; for TopFlash relative to DVL3 wt (= 1) / TopFlash in CK1e-/- relative to CK1e wt (= 1): Fig 8d. On the procedure:
Cells were transfected 24 h after seeding with 0.1 μg of Super8X TopFlash construct, 0.1 μg of Renilla luciferase construct, and 0.1 μg of corresponding plasmids per well for 6 h in a 24-well plate. As for the ECFP-DVL3 FIII wt stable cell lines, transfection was followed by 4 h induction of tetracycline (1 µg/ml) and 8 h treatment of CM:DMEM (1:1 ratio). For performing this assay, Promega Dual Luciferase assay kit (Promega, #E1910) was used according to the manufacturer’s instructions. Luminescence was measured by a Hidex Bioscan Plate Chameleon Luminometer. Results are depicted as the ratio of TopFlash and Renilla signal (TopFlash fold induction), which was normalized for each experiment to certain control column (normalized TopFlash fold induction). Data were analyzed by MS Excel 2007 and GraphPad Prism 6 and results were shown as the means ± S.D. (number of experiments indicated ad hoc).

Assay [2] relates to DVL3 membrane recruitment by FZD6 in HEK293 cells. Briefly: FZD6-dependent membrane recruitment of DVL3, immunofluorescence. It is filed as cell-based, human. On the set-up: key to Non-recruited (DVL3 membrane recruitment): number of cells out of 100 positive cells scored. To be noted: Fig 8c. From the text:
First, we analyzed the preferred subcellular localization of DVL3 (as introduced in Fig. 2c)[10],[14]. […] Next, we investigated if DVL3 conformation correlates with the capacity of DVL3 to be recruited by FZD6, a key Wnt receptor, to the plasma membrane. For this purpose, we co-expressed FZD6 and analyzed membrane recruitment of DVL3 in FZD6-positive cells by immunofluorescence. Individual cells were categorized as: not recruited (Fig. 8b, no DVL3 in the membrane), partially recruited (clear membrane as well as cytoplasmic localization), and fully recruited (predominantly plasma membrane localization, Fig. 8c, left). […] In the last readout we analyzed the capacity of DVL3 to activate downstream Wnt/β-catenin pathway monitored by TopFlash reporter assay (Fig. 8d). […] On the other hand, under conditions that favor the open conformation both activation as well as inhibition of the Wnt/β-catenin pathway was evident.
For immunofluorescence, cells were seeded (40,000 per well) on 24-well plates with gelatin-coated coverslips and transfected, as indicated, with 0.1 μg of each corresponding plasmid (0.3 μg of mCherry-FZD6) for 6 h. For western blotting and Dual Luciferase TopFlash/Renilla Reporter Assay, cells were seeded (60,000 per well) directly on 24-well plates with 0.1 μg of each corresponding plasmid (if not indicated otherwise) for 6 h. For coimmunoprecipitation, cells were seeded (4.4 × 10^6) on 10-cm dishes and transfected with 1 μg of each corresponding plasmid. The next day after seeding, cells were transfected using polyethyleneimine (PEI) in a stoichiometry of 6 μl of PEI per 1 μg of DNA for 6 h and were harvested 24 h after transfection. The following plasmids used in HEK293 cells have been described previously: FLAG-DVL3 wt[47], CK1ϵ wt[48], mCherry-FZD6 (ref. [37]), and dominant-negative CK1ϵ P3 (ref. [33]). The ECFP-DVL3 wt plasmid was made by Gateway Technology (via LR recombination according to the manufacturer’s instructions; Thermo Fisher Scientific, #11791020) from the donor plasmid pDONR221 DVL3 (DNASU, #FLH178665.01x) and the destination plasmid pdECFP (LMBP, #4548). The HA-DVL3 wt plasmid was made by Gateway Technology from the donor plasmid pDONR221 DVL3 (DNASU, #FLH178665.01x) and the destination plasmid pcDNA3.1 N-term HA (gift from Erich Nigg).
Cells were seeded on gelatin-coated coverslips in 24-well plates and were transfected the next day. Cells were fixed 24 h later in fresh 4% paraformaldehyde, permeabilized with 0.5% Triton X-100, blocked with PBS/BSA/Triton/Azide buffer (PBTA) [3% (wt/vol) BSA, 0.25% Triton, 0.01% NaN3] for 1 h, and incubated overnight with primary antibodies (in dilution 1:500) in PBTA at 4 °C. The next day, the coverslips were washed in PBS and incubated with secondary antibodies conjugated to Alexa Fluor 488 (Invitrogen A11001) or/and Alexa Fluor 594 (Invitrogen A11058) (all in dilution 1:1000), washed with PBS [in case of samples containing FLAG-DVL3 WT and derived variants stained with DAPI (1:5000)], and all coverslips were mounted on microscopic slides. Cells were then visualized on an Olympus IX51 fluorescent microscope using ×40 air or ×100 oil objectives and/or an Olympus Fluoview 500 confocal laser scanning microscope IX71 using ×100 oil objective. One hundred positive cells per experiment (n = 3) were analyzed and scored according to their phenotype into two/three categories (punctae/even); or non-recruited/partially/fully recruited for FZD6-dependent recruitment of DVL3. The antibodies used were as follows: anti-FLAG M2 (Sigma-Aldrich, #F1804), anti-DVL3 (Santa Cruz, #sc-8027), anti-CK1ɛ (Santa Cruz, #sc-6471), anti-RFP (Chromotek, #5h9) and anti-GFP (Fitzgerald, #20R-GR-011).

The mark [3] stands for this setting: sensor FlAsH III, replicate of grid row r5.
The mark [4] stands for this setting: sensor FlAsH III, replicate of grid row r6.
[5] abbreviates: sensor FlAsH III, replicate of grid row r7.
The mark [6] stands for this setting: panel of CK1e-/- comparison, wt cells, exp1.
[7] abbreviates: panel of CK1e-/- comparison, wt cells, exp3.

Turning to CK1e, the “TopFlash relative to ctrl (= 1)” value in assay [1] (sensor FlAsH I, replicate of grid row r5) was found to be 1.477; in assay [1] (sensor FlAsH I, replicate of grid row r6) it was 1.51; in assay [1] (sensor FlAsH I, replicate of grid row r7) it was 1.233; in assay [1] (sensor FlAsH II, replicate of grid row r5), 1.907; in assay [1] (sensor FlAsH II, replicate of grid row r6), 2.332; in assay [1] (sensor FlAsH II, replicate of grid row r7) it was 1.874. The “TopFlash relative to ctrl (= 1)” value in assay [1] (setting [3]) was 2.614; in assay [1] (setting [4]) it was 1.858; in assay [1] (setting [5]), 2.849; in assay [1] (sensor FlAsH IV, replicate of grid row r5), 3.481; in assay [1] (sensor FlAsH IV, replicate of grid row r6), 2.7; in assay [1] (sensor FlAsH IV, replicate of grid row r7) it was 1.4298. The figures for the “TopFlash FlAsH III (CK1e-/-), relative to ctrl (= 1)” value in assay [1] (setting [3]), in assay [1] (setting [4]) and in assay [1] (setting [5]) were 2.409, 2.306 and 3.0297, respectively.

For Ck1e, the figures for the “TopFlash relative to DVL3 wt (= 1)” value in assay [1] (replicate of grid row r4), in assay [1] (replicate of grid row r5) and in assay [1] (replicate of grid row r6) were 2.8, 2.5 and 1.85, respectively. In addition, the “Fully recruited (DVL3 membrane recruitment)” value (“Fully recruited” for short) worked out at 8 in assay [2] (exp1), 43 in assay [2] (exp2) and 15 in assay [2] (exp3). In addition, the “Non-recruited (DVL3 membrane recruitment)” value (“Non-recruited” below) in assay [2] (exp1) is 58; in assay [2] (exp2) it was 27; in assay [2] (exp3) it was 63. For the same molecule, the figures for the “Partially recruited (DVL3 membrane recruitment)” value (“Partially recruited” for short) in assay [2] (exp1), in assay [2] (exp2) and in assay [2] (exp3) were 34, 30 and 22, respectively.

B1: DVL3 wt (protein, UniProt Q92997 1-716, looked up)
Segment polarity protein …: MGETKIIYHLDGQETPYLVKLPLPAERVTLADFKGVLQRPSYKFFFKSMDDDFGVVKEEISDDNAKLPCFNGRVVSWLVSAEGSHPDPAPFCADNPSELPPPMERTGGIGDSRPPSFHPHAGGGSQENLDNDTETDSLVSAQRERPRRRDGPEHATRLNGTAKGERRREPGGYDSSSTLMSSELETTSFFDSDEDDSTSRFSSSTEQSSASRLMRRHKRRRRKQKVSRIERSSSFSSITDSTMSLNIITVTLNMEKYNFLGISIVGQSNERGDGGIYIGSIMKGGAVAADGRIEPGDMLLQVNEINFENMSNDDAVRVLREIVHKPGPITLTVAKCWDPSPRGCFTLPRSEPIRPIDPAAWVSHTAAMTGTFPAYGMSPSLSTITSTSSSITSSIPDTERLDDFHLSIHSDMAAIVKAMASPESGLEVRDRMWLKITIPNAFIGSDVVDWLYHNVEGFTDRREARKYASNLLKAGFIRHTVNKITFSEQCYYIFGDLCGNMANLSLHDHDGSSGASDQDTLAPLPHPGAAPWPMAFPYQYPPPPHPYNPHPGFPELGYSYGGGSASSQHSEGSRSSGSNRSGSDRRKEKDPKAGDSKSGGSGSESDHTTRSSLRGPRERAPSERSGPAASEHSHRSHHSLASSLRSHHTHPSYGPPGVPPLYGPPMLMMPPPPAAMGPPGAPPGRDLASVPPELTASRQSFRMAMGNPSEFFVDVM
With B1, the “TopFlash in CK1e-/- relative to CK1e wt (= 1)” value is listed as 0.2303 in assay [1] (replicate of grid row r4), 0.1152 in assay [1] (replicate of grid row r5), 0.24 in assay [1] (replicate of grid row r6) and 0.2094 in assay [1] (replicate of grid row r7). Further, the “Fully recruited” value in assay [2] (CK1e-/- cells, exp1) amounted to 31; in assay [2] (CK1e-/- cells, exp2), 16; in assay [2] (CK1e-/- cells, exp3), 26; in assay [2] (exp1) it was 11; in assay [2] (exp2) it was 20; in assay [2] (exp3) it was 22. For the same molecule, the “Fully recruited” value is reported as 8 in assay [2] (setting [6]) and 20 in assay [2] (setting [7]). The “Non-recruited” value in assay [2] (CK1e-/- cells, exp1) is reported as 33; in assay [2] (CK1e-/- cells, exp2), 44; in assay [2] (CK1e-/- cells, exp3), 50; in assay [2] (exp1), 58; in assay [2] (exp2), 34; in assay [2] (exp3), 48. Further, the “Non-recruited” value is listed as 65 in assay [2] (setting [6]) and 51 in assay [2] (setting [7]). Besides, the “Partially recruited” value in assay [2] (CK1e-/- cells, exp1) was found to be 36; in assay [2] (CK1e-/- cells, exp2), 40; in assay [2] (CK1e-/- cells, exp3) it was 24; in assay [2] (exp1), 31; in assay [2] (exp2), 46; in assay [2] (exp3), 30. Also, the results for the “Partially recruited” value in assay [2] (setting [6]) and in assay [2] (setting [7]) were 27 and 29, respectively.

These data come from paper PMC6472409, “Dishevelled-3 conformation dynamics analyzed by FRET-based biosensors reveals a key role of casein kinase 1” (Nature Communications, 2019).
